The assay concerns the target α-casein.
“transglutaminase preparation (culture broth) of Agaricus sp. (pool or library)” came in with a Units/ml (putrescine assay) of 0.15 Units/ml.

In turn, “transglutaminase preparation (culture broth) of Alternaria alternata (pool or library)” had a Units/ml (putrescine assay) of 0.16 Units/ml.

Take “transglutaminase preparation (culture broth) of Amanita virosa (pool or library)”: the Units/ml (putrescine assay) is 0.14 Units/ml.

For the substance “transglutaminase preparation (culture broth) of Amylostereum chailletii (pool or library)”, the Units/ml (putrescine assay) was determined as 0.44 Units/ml.

As to “transglutaminase preparation (culture broth) of Antrodia serialis (pool or library)”, the Units/ml (putrescine assay) stood at 0.8 Units/ml.

Consider “transglutaminase preparation (culture broth) of Armillaria sp. (pool or library)”, for which the Units/ml (putrescine assay) was 0.62 Units/ml.

The substance “transglutaminase preparation (culture broth) of Ascotricha erinacea (pool or library)” gave a Units/ml (putrescine assay) of 0.15 Units/ml.

On to “transglutaminase preparation (culture broth) of Aspergillus foetidus (pool or library)”, for which the Units/ml (putrescine assay) turned out to be 0.23 Units/ml.

In turn, “transglutaminase preparation (culture broth) of Aspergillus giganteus (pool or library)” displayed a Units/ml (putrescine assay) of 0.19 Units/ml.

In the case of “transglutaminase preparation (culture broth) of Aspergillus heteromorphus (pool or library)”, the Units/ml (putrescine assay) worked out at 0.12 Units/ml.

Consider “transglutaminase preparation (culture broth) of Aspergillus puniceus (pool or library)”, for which the Units/ml (putrescine assay) stood at 0.12 Units/ml.

With “transglutaminase preparation (culture broth) of Aspergillus tamarii (pool or library)”, the Units/ml (putrescine assay) amounted to 0.16 Units/ml.

As to “transglutaminase preparation (culture broth) of Auricularia polytricha (pool or library)”, the Units/ml (putrescine assay) came to 0.18 Units/ml.

As to “transglutaminase preparation (culture broth) of Beauveria calendonica (pool or library)”, the Units/ml (putrescine assay) was 0.25 Units/ml.

Consider “transglutaminase preparation (culture broth) of Beauveria cylindrospora (pool or library)”, for which the Units/ml (putrescine assay) amounted to 0.24 Units/ml.

Regarding “transglutaminase preparation (culture broth) of Botryosphaeria rhodina (pool or library)”, the Units/ml (putrescine assay) is 0.32 Units/ml.

The substance “transglutaminase preparation (culture broth) of Byssochlamys fulva (pool or library)” yielded a Units/ml (putrescine assay) of 0.24 Units/ml.

On to “transglutaminase preparation (culture broth) of Carponia solliomaris (pool or library)”, for which the Units/ml (putrescine assay) is 0.11 Units/ml.

The substance “transglutaminase preparation (culture broth) of Cercospora beticola (pool or library)” displayed a Units/ml (putrescine assay) of 1.58 Units/ml.

Turning to “transglutaminase preparation (culture broth) of Cercospora carisis (pool or library)”, the Units/ml (putrescine assay) was found to be 13 Units/ml.

Turning to “transglutaminase preparation (culture broth) of Cercospora fusimaculans (pool or library)”, the Units/ml (putrescine assay) is 1.3 Units/ml.

“transglutaminase preparation (culture broth) of Cercospora hayi (pool or library)” gave a Units/ml (putrescine assay) of 0.26 Units/ml.

Turning to “transglutaminase preparation (culture broth) of Cercospora sesami (pool or library)”, the Units/ml (putrescine assay) is 0.24 Units/ml.

For the substance “transglutaminase preparation (culture broth) of Cercospora traversiana (pool or library)”, the Units/ml (putrescine assay) was determined as 0.53 Units/ml.

As for “transglutaminase preparation (culture broth) of Chaetomium funicolum (pool or library)”, the Units/ml (putrescine assay) is 0.16 Units/ml.

Regarding “transglutaminase preparation (culture broth) of Chamaemyces fracidus (pool or library)”, the Units/ml (putrescine assay) was 0.2 Units/ml.

On to “transglutaminase preparation (culture broth) of Cladosporium cladosporiodes (pool or library)”, for which the Units/ml (putrescine assay) was 0.22 Units/ml.

Regarding “transglutaminase preparation (culture broth) of Cladosporium oxysporum (pool or library)”, the Units/ml (putrescine assay) turned out to be 0.19 Units/ml.

In turn, “transglutaminase preparation (culture broth) of Cladosporium resinae (pool or library)” returned a Units/ml (putrescine assay) of 0.14 Units/ml.

In turn, “transglutaminase preparation (culture broth) of Cladosporium sphaeospermum (pool or library)” displayed a Units/ml (putrescine assay) of 1.07 Units/ml.

Substance “transglutaminase preparation (culture broth) of Cochliobolus sativus (pool or library)” gave a Units/ml (putrescine assay) of 0.09 Units/ml.

On to “transglutaminase preparation (culture broth) of Coniothyrium cerealis (pool or library)”, for which the Units/ml (putrescine assay) turned out to be 0.13 Units/ml.

Substance “transglutaminase preparation (culture broth) of Coprinus cinereus (pool or library)” returned a Units/ml (putrescine assay) of 0.14 Units/ml.

Consider “transglutaminase preparation (culture broth) of Coprinus sp. (pool or library)”, for which the Units/ml (putrescine assay) turned out to be 0.44 Units/ml.

“transglutaminase preparation (culture broth) of Cunninghamella elegans (pool or library)”: the Units/ml (putrescine assay) is 0.23 Units/ml.

“transglutaminase preparation (culture broth) of Curvularia borreiae (pool or library)”: the Units/ml (putrescine assay) is 0.28 Units/ml.

Substance “transglutaminase preparation (culture broth) of Dendryphiella salina (pool or library)” came in with a Units/ml (putrescine assay) of 0.96 Units/ml.

Substance “transglutaminase preparation (culture broth) of Dimorphosporum disporatrichum (pool or library)” gave a Units/ml (putrescine assay) of 0.42 Units/ml.

Turning to “transglutaminase preparation (culture broth) of Fusarium armeniacum (pool or library)”, the Units/ml (putrescine assay) stood at 0.19 Units/ml.

“transglutaminase preparation (culture broth) of Fusarium decemcellulare (pool or library)” showed a Units/ml (putrescine assay) of 0.1 Units/ml.

In turn, “transglutaminase preparation (culture broth) of Fusarium dimerum (pool or library)” registered a Units/ml (putrescine assay) of 0.25 Units/ml.

Regarding “transglutaminase preparation (culture broth) of Fusarium flocciferum (pool or library)”, the Units/ml (putrescine assay) was determined as 0.15 Units/ml.

The values are drawn from patent US6100053A, “Microbial transglutaminases, their production and use” (priority 1994, dated 2000).
